From publication PMC7916480, “Functional and Structural Characterization of Nucleic Acid Ligands That Bind to Activated Coagulation Factor XIII”

T1: FXIIIa (activated coagulation factor XIII) (human, UniProt P00488 39-732)
T1 sequence: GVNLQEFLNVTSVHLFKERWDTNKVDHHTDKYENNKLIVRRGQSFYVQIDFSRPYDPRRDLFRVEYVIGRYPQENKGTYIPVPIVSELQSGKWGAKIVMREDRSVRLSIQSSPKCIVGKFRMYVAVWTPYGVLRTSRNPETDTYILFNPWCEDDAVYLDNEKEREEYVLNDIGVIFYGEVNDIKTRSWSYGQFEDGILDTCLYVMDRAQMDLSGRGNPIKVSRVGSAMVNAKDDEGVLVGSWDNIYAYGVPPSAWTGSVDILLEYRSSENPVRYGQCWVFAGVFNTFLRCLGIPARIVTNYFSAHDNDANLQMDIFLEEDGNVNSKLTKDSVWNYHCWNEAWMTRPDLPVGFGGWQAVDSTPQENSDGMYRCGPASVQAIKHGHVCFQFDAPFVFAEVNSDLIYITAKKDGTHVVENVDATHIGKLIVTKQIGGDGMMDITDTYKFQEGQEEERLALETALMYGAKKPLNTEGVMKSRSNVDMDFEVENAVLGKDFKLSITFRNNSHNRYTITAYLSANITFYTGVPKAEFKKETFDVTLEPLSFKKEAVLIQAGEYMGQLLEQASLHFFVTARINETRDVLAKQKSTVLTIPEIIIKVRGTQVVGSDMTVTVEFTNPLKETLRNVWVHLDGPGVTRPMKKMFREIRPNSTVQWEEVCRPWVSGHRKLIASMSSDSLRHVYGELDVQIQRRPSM

B1: FA1 (ssDNA)
DNA: AAGCAGTGGTAAGTAGGTTGACCATCCGCCGATTAGGCAATCACGTGGCTTAGGCACCGTATCTCTTCGAGCAATCCACAC
B2: FA8 (ssDNA)
DNA: AAGCAGTGGTAAGTAGGTTGATCATCATGTTATTTTTGTTCCATCACGCCAGTTCTGGTTCTCTCTTCGAGCAATCCACAC
B3: FA6 (ssDNA)
DNA: AAGCAGTGGTAAGTAGGTTGACGCTGCGGGCATCACGTAAGTTAATATATCACTCGGCTATTCTCTTCGAGCAATCCACAC
B4: FA3 (ssDNA)
DNA: AAGCAGTGGTAAGTAGGTTGACCATCGTAGTTCGTACACCAGTCCATTCTAGGACTCACAATCTCTTCGAGCAATCCACAC
B5: FA12 (ssDNA)
DNA: AAGCAGTGGTAAGTAGGTTGATCATCCTCTTTAAGTCATCACTTTAGTTTCTCCATCTACATCTCTTCGAGCAATCCACAC
B6: FA2 (ssDNA)
DNA: AAGCAGTGGTAAGTAGGTTGAGCTTTCATCACCCGTCGGTTAGACTAAGTCTCCAGCATCCTCTCTTCGAGCAATCCACAC

Target: activated coagulation factor XIII (FXIIIa), recombinant human (human) (UniProt P00488)
Test: not given
Conditions: not given

With Tridegin (peptide) the inhibition of FXIIIa isopeptidase activity (fluorogenic peptide substrate, 12.8 nM FXIIIa) by tridegin, up to 12 µM was 50%.

Target: T1, FXIIIa (activated coagulation factor …)
Test: BLI; BLI (BLItz, SAX sensors, 3'-biotinylated aptamer 1 µM) in binding buffer, 2200 rpm; buffer composition, pH and temperature not in material; plate capture 30 min; fibrinogen competition 30 min at RT
Conditions: protein: recombinant; chain copies: 2; label: 3'-biotin (BLI, capture, fibrinogen assay)

First: B1
Second: B2
The Kd of the first is 1.6-fold lower: 50.4 nM for the first, 79.1 nM for the second.

B3 and B4 are within 1.5-fold of each other in Kd: 93.5 nM for the first, 92.9 nM for the second.

Going from B5 to B6, the Kd rises from 51.8 nM to 79.1 nM (1.5-fold).

Target: T1, FXIIIa (activated coagulation factor …)
Test: competition; competition with immobilized fibrinogen, 25 nM FXIIIa; BLI (BLItz, SAX sensors, 3'-biotinylated aptamer 1 µM) in binding buffer, 2200 rpm; buffer composition, pH and temperature not in material; plate capture 30 min; fibrinogen competition 30 min at RT
Conditions: protein: recombinant; chain copies: 2; label: 3'-biotin (BLI, capture, fibrinogen assay)

Going from B1 to B2, the IC50 rises from 89.5 nM to 136 nM (1.5-fold). The first is the more potent here.

B3 and B4 are within 1.5-fold of each other in IC50: 57 nM for the first, 66.2 nM for the second.

B5 and B6 are within 1.5-fold of each other in IC50: 38 nM for the first, 39.3 nM for the second.

Target: T1, FXIIIa (activated coagulation factor …)
Test: competition; competition with immobilized fibrinogen; not affected; BLI (BLItz, SAX sensors, 3'-biotinylated aptamer 1 µM) in binding buffer, 2200 rpm; buffer composition, pH and temperature not in material; plate capture 30 min; fibrinogen competition 30 min at RT
Conditions: protein: recombinant; chain copies: 2; label: biotin (capture)

TACTGTCACGAGGATATAGCACATTAGTTCAGATACGATTGTTACTGTCA (ssDNA) [negative control oligonucleotide]: no binding.

Target: T1, FXIIIa (activated coagulation factor …)
Test: pull-down (aptamer-coated plate, activity read-out); 30 nM FXIIIa; BLI (BLItz, SAX sensors, 3'-biotinylated aptamer 1 µM) in binding buffer, 2200 rpm; buffer composition, pH and temperature not in material; plate capture 30 min; fibrinogen competition 30 min at RT
Conditions: protein: recombinant; chain copies: 2; label: 3'-biotin (BLI, capture, fibrinogen assay)

B3 and B4 are the same in binding signal: roughly 5 % captured for the first, roughly 5 % captured for the second.

For B5, the binding signal was 10 % captured.
